This note sets out measurements from publication PMC3961392.

The target in this test is APOBEC3G (human), Q9HC16. Nature of the test: SEC; 10-15 µg of purified enzyme (low enzyme concentration) on a 10 mL Superdex 200 column; 50 mM Tris pH 7.5, 200 mM NaCl; masses and oligomerization states from a Bio-Rad gel filtration standard curve. Conditions: remark: other sources report otherwise.

B1: APOBEC3G, Q9HC16 1-384 (enzyme)
chain: MKPHFRNTVERMYRDTFSYNFYNRPILSRRNTVWLCYEVKTKGPSRPPLDAKIFRGQVYSELKYHPEMRFFHWFSKWRKLHRDQEYEVTWYISWSPCTKCTRDMATFLAEDPKVTLTIFVARLYYFWDPDYQEALRSLCQKRDGPRATMKIMNYDEFQHCWSKFVYSQRELFEPWNNLPKYYILLHIMLGEILRHSMDPPTFTFNFNNEPWVRGRHETYLCYEVERMHNDTWVLLNQRRGFLCNQAPHKHGFLEGRHAELCFLDVIPFWKLDLDQDYRVTCFTSWSPCFSCAQEMAKFISKNKHVSLCIFTARIYDDQGRCQEGLRTLAEAGAKISIMTYSEFKHCWDTFVDHQGCPFQPWDGLDEHSQDLSGRLRAILQNQEN
With B1, the stoichiometry N came to 2.

The stoichiometry N is a count of units in the complex or per binding partner.
